{
  "source": "patent US12070483B2",
  "about": "“Compositions and methods for treatment of acute lung injury” (THE TRUSTEES OF THE UNIVERSITY OF PENNSYLVANIA, priority 2018, dated 2024)",
  "key": {"[1]": {"system": "NOX2", "test": "ROS production (Amplex red) of isolated perfused mouse lung stimulated with angiotensin II", "type": "in vivo", "conditions": "for ROS production by AngII-activated NOX2 in the isolated mouse lung: ex_vivo", "procedure": "FIGS. 5A and 5B: PIP-2, incorporated within liposomes, was instilled intratracheally prior to lung isolation. FIG. 5A: Isolated lungs were perfused in a recirculating system with artificial medium. NOX2 activity was stimulated by addition of angiotensin II (Ang II). Amplex red along with horseradish peroxidase were added to the perfusate for detection of ROS production. Aliquots of perfusate were analyzed at intervals by spectrophotometry to determine oxidation of amplex red, indicating ROS production. Results are mean±SE for N=3-4. FIG. 5B: Mice were sacrificed at 6, 12, or 24 h after LPS administration ([…]) and lungs were perfused in situ for 15 min with saline solution containing a fluorophore (difluorofluorescein diacetate, DFFDA). Lungs then were homogenized and fluorescence of the lung homogenate was determined as an index of ROS production. Results for FIG. 5A & FIG. 5B are mean±SE for N=4. *P<0.05 vs corresponding LPS and LPS+PIP-2; § P<0.05 vs 12 h and 24 h LPS; ΔP<0.05 vs corresponding LPS.\nFIG. 8: PLA2 inhibitory peptide (PIP-2) inhibits ROS production stimulated by angiotensin II (Ang II) in isolated perfused mouse lung. PIP-2 (2 μg/g body weight) was administered to intact wild type (WT) mice by the IV route. […] After 30 mins, lungs were isolated from anesthesized mice and perfused in a recirculating system with added Ang II ([…]) as a Nox2 activator and Amplex red plus horseradish peroxidase to detect perfusate ROS. WT basal lungs were not stimulated with Ang II. After a 15 min equilibration period (called zero time), aliquots were taken at 15 min intervals for analysis of fluorescence. Each plotted point represents the mean±SE for n=3. The lines were drawn by the least mean squares method. The mean rates of ROS […] calculated from the slope of each line are indicated in parentheses. *P<0.05 vs the other 3 slopes.\nFIG. 10: Effect of liposome composition on delivery of PIP-2 to lungs after IV administration. […]\nThe effect of the PIPs on ROS production in control (untreated) lungs was determined in vitro with isolated perfused lungs. […] The basal rate of ROS production was evaluated with WT lungs that were perfused in the absence of AngII. […] Aliquots of perfusate were taken at 15 min intervals and analyzed by fluorescence for resorufin (λexcitation 568 nm, λemission 581 nm), the product of Amplex red oxidation. The rate of Amplex red oxidation was calculated and expressed as arbitrary fluorescence units (AFU) with normalization to mouse body wt. There was a low rate of Amplex red oxidation in the absence of HRP in the perfusate (˜7% of the AngII-stimulated fluorescence), indicating a non-ROS-mediated oxidation of the fluorophore; this value was subtracted to obtain the reported values."}, "[2]": {"target": "T1, recombinant hPrdx6 (Homo sapiens, UniProt P30041)", "T1 sequence (P30041 1-224)": "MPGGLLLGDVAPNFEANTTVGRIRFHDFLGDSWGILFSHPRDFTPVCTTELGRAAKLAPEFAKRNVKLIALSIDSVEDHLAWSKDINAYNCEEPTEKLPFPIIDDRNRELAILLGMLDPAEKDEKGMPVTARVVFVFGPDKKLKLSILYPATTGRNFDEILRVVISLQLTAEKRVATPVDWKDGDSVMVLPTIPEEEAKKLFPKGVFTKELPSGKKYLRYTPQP", "test": "aiPLA2 activity of recombinant human Prdx6 in presence of peptide", "type": "biochemical", "conditions": "for aiPLA2 activity of human recombinant protein: Table 2, hPrdx6 only 92.0"}, "[3]": {"target": "T2, Prdx6 (Mus musculus, UniProt O08709)", "T2 construct": "from tissue; host or cells: mouse lung homogenate (wild type mice)", "T2 sequence (O08709 1-224)": "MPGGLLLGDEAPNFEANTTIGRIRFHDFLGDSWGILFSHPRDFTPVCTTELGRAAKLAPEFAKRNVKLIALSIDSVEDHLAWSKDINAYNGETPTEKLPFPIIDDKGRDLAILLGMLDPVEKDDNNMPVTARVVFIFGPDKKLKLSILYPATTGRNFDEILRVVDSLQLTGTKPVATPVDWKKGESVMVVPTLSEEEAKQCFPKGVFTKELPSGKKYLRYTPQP", "test": "aiPLA2 (Prdx6-PLA2) activity of mouse lung homogenate after IT or IV injection of PIP", "type": "in vivo", "set-up": "key to aiPLA2 activity, figure in parentheses (0 h = 100): Prdx6-PLA2 activity as % of 0 h value (0 h = 100)", "conditions": "for Prdx6-PLA2 activity of mouse lung homogenate: Table 6; for aiPLA2 activity of mouse lung: 24 hours after IV injection, 2 μg/g, liposomes only 8.81", "procedure": "FIG. 6: PIP-2 in liposomes was administered to mice either intratracheally (IT) or intravenously (IV) at 0 time. Lungs were harvested at intervals between 4 and 72 h after the PIP-2 administration, homogenized, and analyzed for Prdx6-PLA2 activity. PIP-2 is effective by either the IT or IV route with a calculated ½ time for recovery of ˜50 h. Results are mean+SE for N=3-4.\nPIP-2 in liposomes injected IV or IT inhibits Prdx6 activity of the lung homogenate. Maximal inhibition was seen within 4 hours after administration of PIP-2. Recovery from inhibition began at ˜36 hours and was complete by 48 hours. Results are similar for PIP-1,2,4 (PIP-3 and -5 were not tested). […] Effectiveness requires liposomes for peptide delivery. Inhibition after IT or IV administration was similar."}},
  "data": [
    {"sequence": "LHDFRHQIL (Inhibitory peptide.) [PIP-2]", "values": [
      {"measurement": "inhibition of ROS production", "setting": "[1]; PIP-2 2 μg/g in liposomes IV, WT lungs, Ang II 50 μM", "result": "~75", "unit": "%"},
      {"measurement": "ROS production by AngII-activated NOX2 in the isolated mouse lung", "setting": "[1]", "result": "inhibit ROS production"},
      {"measurement": "aiPLA2 activity of human recombinant protein", "setting": "[2]", "result": 29.9, "unit": "nmol/min/mg prot."},
      {"measurement": "aiPLA2 activity of human recombinant Prdx6", "setting": "[2]; Table 3, hPrdx6 only 99.91", "result": 26.18, "unit": "nmol/min/mg prot."},
      {"measurement": "aiPLA2 activity of mouse lung homogenate", "setting": "[3]; IT, 0 h post injection", "result": "8.84 ± 0.35", "unit": "nmol/hr/mg protein"},
      {"measurement": "aiPLA2 activity, figure in parentheses (0 h = 100)", "setting": "[3]; IT, 0 h post injection", "result": 100},
      {"measurement": "aiPLA2 activity of mouse lung homogenate", "setting": "[3]; IT, 4 h post injection", "result": "1.56 ± 0.03", "unit": "nmol/hr/mg protein"},
      {"measurement": "aiPLA2 activity, figure in parentheses (0 h = 100)", "setting": "[3]; IT, 4 h post injection", "result": 18},
      {"measurement": "aiPLA2 activity of mouse lung homogenate", "setting": "[3]; IT, 12 h post injection", "result": "1.61 ± 0.04", "unit": "nmol/hr/mg protein"},
      {"measurement": "aiPLA2 activity, figure in parentheses (0 h = 100)", "setting": "[3]; IT, 12 h post injection", "result": 18},
      {"measurement": "aiPLA2 activity of mouse lung homogenate", "setting": "[3]; IT, 24 h post injection", "result": "1.63 ± 0.14", "unit": "nmol/hr/mg protein"},
      {"measurement": "aiPLA2 activity, figure in parentheses (0 h = 100)", "setting": "[3]; IT, 24 h post injection", "result": 18},
      {"measurement": "aiPLA2 activity of mouse lung homogenate", "setting": "[3]; IT, 36 h post injection", "result": "2.04 ± 0.04", "unit": "nmol/hr/mg protein"},
      {"measurement": "aiPLA2 activity, figure in parentheses (0 h = 100)", "setting": "[3]; IT, 36 h post injection", "result": 27},
      {"measurement": "aiPLA2 activity of mouse lung homogenate", "setting": "[3]; IT, 48 h post injection", "result": "2.95 ± 0.10", "unit": "nmol/hr/mg protein"},
      {"measurement": "aiPLA2 activity, figure in parentheses (0 h = 100)", "setting": "[3]; IT, 48 h post injection", "result": 33},
      {"measurement": "aiPLA2 activity of mouse lung homogenate", "setting": "[3]; IT, 72 h post injection", "result": "8.78 ± 0.18", "unit": "nmol/hr/mg protein"},
      {"measurement": "aiPLA2 activity, figure in parentheses (0 h = 100)", "setting": "[3]; IT, 72 h post injection", "result": 99},
      {"measurement": "aiPLA2 activity of mouse lung homogenate", "setting": "[3]; IV, 0 h post injection", "result": "8.85 ± 0.3", "unit": "nmol/hr/mg protein"},
      {"measurement": "aiPLA2 activity, figure in parentheses (0 h = 100)", "setting": "[3]; IV, 0 h post injection", "result": 100},
      {"measurement": "aiPLA2 activity of mouse lung homogenate", "setting": "[3]; IV, 4 h post injection", "result": "1.45 ± 0.07", "unit": "nmol/hr/mg protein"},
      {"measurement": "aiPLA2 activity, figure in parentheses (0 h = 100)", "setting": "[3]; IV, 4 h post injection", "result": 16},
      {"measurement": "aiPLA2 activity of mouse lung homogenate", "setting": "[3]; IV, 12 h post injection", "result": "1.58 ± 0.04", "unit": "nmol/hr/mg protein"},
      {"measurement": "aiPLA2 activity, figure in parentheses (0 h = 100)", "setting": "[3]; IV, 12 h post injection", "result": 18},
      {"measurement": "aiPLA2 activity of mouse lung homogenate", "setting": "[3]; IV, 24 h post injection", "result": "1.77 ± 0.11", "unit": "nmol/hr/mg protein"},
      {"measurement": "aiPLA2 activity, figure in parentheses (0 h = 100)", "setting": "[3]; IV, 24 h post injection", "result": 20},
      {"measurement": "aiPLA2 activity of mouse lung homogenate", "setting": "[3]; IV, 36 h post injection", "result": "2.14 ± 0.03", "unit": "nmol/hr/mg protein"},
      {"measurement": "aiPLA2 activity, figure in parentheses (0 h = 100)", "setting": "[3]; IV, 36 h post injection", "result": 24},
      {"measurement": "aiPLA2 activity of mouse lung homogenate", "setting": "[3]; IV, 48 h post injection", "result": "3.03 ± 0.05", "unit": "nmol/hr/mg protein"},
      {"measurement": "aiPLA2 activity, figure in parentheses (0 h = 100)", "setting": "[3]; IV, 48 h post injection", "result": 34},
      {"measurement": "aiPLA2 activity of mouse lung homogenate", "setting": "[3]; IV, 72 h post injection", "result": "8.49 ± 0.10", "unit": "nmol/hr/mg protein"},
      {"measurement": "aiPLA2 activity, figure in parentheses (0 h = 100)", "setting": "[3]; IV, 72 h post injection", "result": 96},
      {"measurement": "time at which recovery from inhibition began", "setting": "[3]; PIP-2 in liposomes IV or IT", "result": "~36", "unit": "h"},
      {"measurement": "time at which recovery from inhibition was complete", "setting": "[3]; PIP-2 in liposomes IV or IT", "result": "≤ 48", "unit": "h"},
      {"measurement": "time to maximal inhibition of Prdx6 activity of lung homogenate", "setting": "[3]; PIP-2 in liposomes IV or IT", "result": "≤ 4", "unit": "h"},
      {"measurement": "calculated ½ time for recovery of Prdx6-PLA2 activity", "setting": "[3]; PIP-2 in liposomes, IT or IV", "result": "~50", "unit": "h"},
      {"measurement": "Prdx6-PLA2 activity of mouse lung homogenate", "setting": "[3]; IT, lungs lavaged prior to assay, 0 post injection", "result": "8.1 ± 0.3", "unit": "nmol/hr/mg protein"},
      {"measurement": "Prdx6-PLA2 activity of mouse lung homogenate", "setting": "[3]; IT, lungs lavaged, 24 hr post injection", "result": "1.2 ± 0.02", "unit": "nmol/hr/mg protein"},
      {"measurement": "Prdx6-PLA2 activity of mouse lung homogenate", "setting": "[3]; IT, lungs lavaged, 48 hr post injection", "result": "3.0 ± 0.2", "unit": "nmol/hr/mg protein"},
      {"measurement": "Prdx6-PLA2 activity of mouse lung homogenate", "setting": "[3]; IT, lungs lavaged, 72 hr post injection", "result": "8.3 ± 0.9", "unit": "nmol/hr/mg protein"}
    ]},
    {"sequence": "LYEIKHQIL (Inhibitory peptide.) [PIP-4]", "values": [
      {"measurement": "ROS production by AngII-activated NOX2 in the isolated mouse lung", "setting": "[1]", "result": "inhibit ROS production"},
      {"measurement": "aiPLA2 activity of human recombinant protein", "setting": "[2]", "result": 32.3, "unit": "nmol/min/mg prot."},
      {"measurement": "aiPLA2 activity of mouse lung", "setting": "[3]; alone, no liposomes", "result": "8.43 ± 0.23 (n = 3) nmol/hr/mg prot"},
      {"measurement": "aiPLA2 activity of mouse lung", "setting": "[3]; in liposomes", "result": "1.55 ± 0.02 (n = 3) nmol/hr/mg prot"},
      {"measurement": "Prdx6-PLA2 activity of mouse lung homogenate", "setting": "[3]; IV, 0 post injection", "result": "8.0 ± 0.7", "unit": "nmol/hr/mg protein"},
      {"measurement": "Prdx6-PLA2 activity of mouse lung homogenate", "setting": "[3]; IV, 24 hr post injection", "result": "1.1 ± 0.02", "unit": "nmol/hr/mg protein"},
      {"measurement": "Prdx6-PLA2 activity of mouse lung homogenate", "setting": "[3]; IV, 48 hr post injection", "result": "2.8 ± 0.2", "unit": "nmol/hr/mg protein"},
      {"measurement": "Prdx6-PLA2 activity of mouse lung homogenate", "setting": "[3]; IV, 72 hr post injection", "result": "7.8 ± 1.2", "unit": "nmol/hr/mg protein"},
      {"measurement": "Prdx6-PLA2 activity of mouse lung homogenate", "setting": "[3]; IV, 96 hr post injection", "result": "8.1 ± 0.2", "unit": "nmol/hr/mg protein"}
    ]}
  ]
}
